Source: doi:10.1101/2024.02.29.582761

Experiments:
Experiment in all cases: BLI
[1] = biological target: His-SUMO-GroTAC1 (E. coli)
[2] = biological target: His-SUMO-XB-GGS peptide (E. coli)
His-SUMO-GGS-SBP peptide = biological target: His-SUMO-GGS-SBP peptide

| Substance | Kd [1] | Kd [2] | Kd (His-SUMO-GGS-SBP peptide) |
| --- | --- | --- | --- |
| ClpX (from UniProt P0A6H1 1-424) (enzyme) | 70 nM | 65 nM |  |
| GroEL (from UniProt P0A6F5 1-548) (natural protein) | 154 nM |  | 94 nM |
